# Molecular target: T1, FcγRIIIa (human, UniProt P08637 17-208)
# T1 construct: extracellular domain; also called 3a; FcγRIIIa extracellular domain
# Assay: SPR (Biacore);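 note: antibody variants captured on an SPR sensor chip, with FcγRIIIa passed over as analyte in HBS-EP+ buffer at 25 °C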
# T1 sequence (P08637 other isoform, or with tags, fused parts or gaps): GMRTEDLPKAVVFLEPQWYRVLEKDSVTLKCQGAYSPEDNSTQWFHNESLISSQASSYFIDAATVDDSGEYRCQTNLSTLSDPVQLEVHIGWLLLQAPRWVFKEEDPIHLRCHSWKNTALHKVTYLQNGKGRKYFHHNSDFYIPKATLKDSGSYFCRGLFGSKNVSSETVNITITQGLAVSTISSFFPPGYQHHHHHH
row,Binder,He/Con 3a
1,"GpH7-A5/GpH7-B3 variant T335_08L/GpL16-k0 (antibody, human IgG1, kappa, copies: 1 + 1 + 2) heavy 1: not shown heavy 2: not shown light: DIVMTQSPLSLPVTPGEPASISCQASESLVHSNRNTYLHWYLQKPGQSPQLLIYKVSNRFSGVPDRFSGSGSGTDFTLKISRVEAEDVGVYYCSQNTHVPPTFGQGTKVEIERTVAAPSVFIFPPSDEQLKSGTASVVCLLNNFYPREAKVQWKVDNALQSGNSQESVTEQDSKDSTYSLSSTLTLSKADYEKHKVYACEVTHQGLSSPVTKSFNRGEC",97.8 % of GpH7-A5/GpH7-B3/GpL16-k0
2,"GpH7-A5/GpH7-B3 variant V266_02A/GpL16-k0 (antibody, human IgG1, kappa, copies: 1 + 1 + 2) heavy 1: not shown heavy 2: not shown light: DIVMTQSPLSLPVTPGEPASISCQASESLVHSNRNTYLHWYLQKPGQSPQLLIYKVSNRFSGVPDRFSGSGSGTDFTLKISRVEAEDVGVYYCSQNTHVPPTFGQGTKVEIERTVAAPSVFIFPPSDEQLKSGTASVVCLLNNFYPREAKVQWKVDNALQSGNSQESVTEQDSKDSTYSLSSTLTLSKADYEKHKVYACEVTHQGLSSPVTKSFNRGEC",56.8 % of GpH7-A5/GpH7-B3/GpL16-k0
3,"GpH7-A5/GpH7-B3 variant Y296_02A/GpL16-k0 (antibody, human IgG1, kappa, copies: 1 + 1 + 2) heavy 1: not shown heavy 2: not shown light: DIVMTQSPLSLPVTPGEPASISCQASESLVHSNRNTYLHWYLQKPGQSPQLLIYKVSNRFSGVPDRFSGSGSGTDFTLKISRVEAEDVGVYYCSQNTHVPPTFGQGTKVEIERTVAAPSVFIFPPSDEQLKSGTASVVCLLNNFYPREAKVQWKVDNALQSGNSQESVTEQDSKDSTYSLSSTLTLSKADYEKHKVYACEVTHQGLSSPVTKSFNRGEC",66.3 % of GpH7-A5/GpH7-B3/GpL16-k0
4,"GpH7-A5/GpH7-B3 variant T335_09D/GpL16-k0 (antibody, human IgG1, kappa, copies: 1 + 1 + 2) heavy 1: not shown heavy 2: not shown light: DIVMTQSPLSLPVTPGEPASISCQASESLVHSNRNTYLHWYLQKPGQSPQLLIYKVSNRFSGVPDRFSGSGSGTDFTLKISRVEAEDVGVYYCSQNTHVPPTFGQGTKVEIERTVAAPSVFIFPPSDEQLKSGTASVVCLLNNFYPREAKVQWKVDNALQSGNSQESVTEQDSKDSTYSLSSTLTLSKADYEKHKVYACEVTHQGLSSPVTKSFNRGEC",103 % of GpH7-A5/GpH7-B3/GpL16-k0
5,"GpH7-A5/GpH7-B3 variant T335_10E/GpL16-k0 (antibody, human IgG1, kappa, copies: 1 + 1 + 2) heavy 1: not shown heavy 2: not shown light: DIVMTQSPLSLPVTPGEPASISCQASESLVHSNRNTYLHWYLQKPGQSPQLLIYKVSNRFSGVPDRFSGSGSGTDFTLKISRVEAEDVGVYYCSQNTHVPPTFGQGTKVEIERTVAAPSVFIFPPSDEQLKSGTASVVCLLNNFYPREAKVQWKVDNALQSGNSQESVTEQDSKDSTYSLSSTLTLSKADYEKHKVYACEVTHQGLSSPVTKSFNRGEC",102 % of GpH7-A5/GpH7-B3/GpL16-k0
6,"GpH7-A5/GpH7-B3 variant T335_19Q/GpL16-k0 (antibody, human IgG1, kappa, copies: 1 + 1 + 2) heavy 1: not shown heavy 2: not shown light: DIVMTQSPLSLPVTPGEPASISCQASESLVHSNRNTYLHWYLQKPGQSPQLLIYKVSNRFSGVPDRFSGSGSGTDFTLKISRVEAEDVGVYYCSQNTHVPPTFGQGTKVEIERTVAAPSVFIFPPSDEQLKSGTASVVCLLNNFYPREAKVQWKVDNALQSGNSQESVTEQDSKDSTYSLSSTLTLSKADYEKHKVYACEVTHQGLSSPVTKSFNRGEC",97.7 % of GpH7-A5/GpH7-B3/GpL16-k0
7,"GpH7-A5/GpH7-B3 variant Y296_08L/GpL16-k0 (antibody, human IgG1, kappa, copies: 1 + 1 + 2) heavy 1: not shown heavy 2: not shown light: DIVMTQSPLSLPVTPGEPASISCQASESLVHSNRNTYLHWYLQKPGQSPQLLIYKVSNRFSGVPDRFSGSGSGTDFTLKISRVEAEDVGVYYCSQNTHVPPTFGQGTKVEIERTVAAPSVFIFPPSDEQLKSGTASVVCLLNNFYPREAKVQWKVDNALQSGNSQESVTEQDSKDSTYSLSSTLTLSKADYEKHKVYACEVTHQGLSSPVTKSFNRGEC",72.4 % of GpH7-A5/GpH7-B3/GpL16-k0
8,"GpH7-A5/GpH7-B3 variant Y296_09D/GpL16-k0 (antibody, human IgG1, kappa, copies: 1 + 1 + 2) heavy 1: not shown heavy 2: not shown light: DIVMTQSPLSLPVTPGEPASISCQASESLVHSNRNTYLHWYLQKPGQSPQLLIYKVSNRFSGVPDRFSGSGSGTDFTLKISRVEAEDVGVYYCSQNTHVPPTFGQGTKVEIERTVAAPSVFIFPPSDEQLKSGTASVVCLLNNFYPREAKVQWKVDNALQSGNSQESVTEQDSKDSTYSLSSTLTLSKADYEKHKVYACEVTHQGLSSPVTKSFNRGEC",89 % of GpH7-A5/GpH7-B3/GpL16-k0
9,"GpH7-A5/GpH7-B3 variant T335_16H/GpL16-k0 (antibody, human IgG1, kappa, copies: 1 + 1 + 2) heavy 1: not shown heavy 2: not shown light: DIVMTQSPLSLPVTPGEPASISCQASESLVHSNRNTYLHWYLQKPGQSPQLLIYKVSNRFSGVPDRFSGSGSGTDFTLKISRVEAEDVGVYYCSQNTHVPPTFGQGTKVEIERTVAAPSVFIFPPSDEQLKSGTASVVCLLNNFYPREAKVQWKVDNALQSGNSQESVTEQDSKDSTYSLSSTLTLSKADYEKHKVYACEVTHQGLSSPVTKSFNRGEC",99.3 % of GpH7-A5/GpH7-B3/GpL16-k0
10,"GpH7-A5/GpH7-B3 variant T335_11K/GpL16-k0 (antibody, human IgG1, kappa, copies: 1 + 1 + 2) heavy 1: not shown heavy 2: not shown light: DIVMTQSPLSLPVTPGEPASISCQASESLVHSNRNTYLHWYLQKPGQSPQLLIYKVSNRFSGVPDRFSGSGSGTDFTLKISRVEAEDVGVYYCSQNTHVPPTFGQGTKVEIERTVAAPSVFIFPPSDEQLKSGTASVVCLLNNFYPREAKVQWKVDNALQSGNSQESVTEQDSKDSTYSLSSTLTLSKADYEKHKVYACEVTHQGLSSPVTKSFNRGEC",91.7 % of GpH7-A5/GpH7-B3/GpL16-k0
11,"GpH7-A5/GpH7-B3 variant Y296_04F/GpL16-k0 (antibody, human IgG1, kappa, copies: 1 + 1 + 2) heavy 1: not shown heavy 2: not shown light: DIVMTQSPLSLPVTPGEPASISCQASESLVHSNRNTYLHWYLQKPGQSPQLLIYKVSNRFSGVPDRFSGSGSGTDFTLKISRVEAEDVGVYYCSQNTHVPPTFGQGTKVEIERTVAAPSVFIFPPSDEQLKSGTASVVCLLNNFYPREAKVQWKVDNALQSGNSQESVTEQDSKDSTYSLSSTLTLSKADYEKHKVYACEVTHQGLSSPVTKSFNRGEC",79.5 % of GpH7-A5/GpH7-B3/GpL16-k0
